Data on 2 molecules can be found in paper PMC6358110, “Role of SpaO in the assembly of the sorting platform of a Salmonella type III secretion system” (PLoS Pathogens, 2019).

Assay [1] has as its target FLAG-tagged SpaO^L67pBpa (Salmonella enterica Typhimurium SL1344) (UniProt P40699). Description: cross-linking; site-specific in vivo photo-cross-linking: pBpa in SpaO, live S. Typhimurium in PBS irradiated at 365 nm; whole cell lysates on SDS-PAGE, anti-FLAG western blot, with and without UV.
In assay [2] the target is T1, SpaO^L, full length product of spaO, N-terminal His-tagged (S. Typhimurium, UniProt P40699 1-303).
T1 construct: SpaO, full length product (SpaO^L) of the spaO gene, S. Typhimurium SPI-1 T3SS sorting platform component; The same plasmid gives both SpaO^L and the internally translated SpaO^S; also called His-tagged SpaO; source: E. coli Lemo21(DE3) harboring plasmid pSB3775, purified (Ni-NTA, Superose 6); not shown: His tag, N-terminal, kept
T1 sequence: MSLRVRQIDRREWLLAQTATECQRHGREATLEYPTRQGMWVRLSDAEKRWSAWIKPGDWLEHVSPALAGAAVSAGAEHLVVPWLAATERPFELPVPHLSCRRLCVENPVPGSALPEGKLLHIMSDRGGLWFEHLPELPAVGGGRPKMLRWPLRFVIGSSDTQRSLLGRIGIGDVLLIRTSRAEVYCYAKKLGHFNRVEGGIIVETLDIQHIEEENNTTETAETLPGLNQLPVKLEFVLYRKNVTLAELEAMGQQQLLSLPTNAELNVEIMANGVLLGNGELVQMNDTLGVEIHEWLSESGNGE
Description: SEC; N-terminal His-tagged SpaO made in E. coli, purified on Ni-NTA, run on Superose 6 10/300 GL; fractions analysed by SDS-PAGE and Coomassie; SpaO^L and SpaO^S made from one plasmid and co-purified. The conditions noted are these: both partners purified.

The molecule “FLAG-tagged SpaO^L67pBpa (from UniProt P40699 1-303) (natural protein)” gave a stoichiometry N in assay [1] of 4.

B1: SpaO^S, short form of SpaO composed of the C-terminal 101 amino acids (domain or fragment)
chain: VETLDIQHIEEENNTTETAETLPGLNQLPVKLEFVLYRKNVTLAELEAMGQQQLLSLPTNAELNVEIMANGVLLGNGELVQMNDTLGVEIHEWLSESGNGE
notes: SpaO^S, internally translated product of spaO starting at the internal GTG codon 203; the C-terminal 101 amino acids of SpaO, S. Typhimurium; Translated from an internal GTG start codon, so the first residue is probably Met rather than Val (surmised); source: E. coli Lemo21(DE3) harboring plasmid pSB3775, co-purified with His-tagged SpaO^L (Ni-NTA, Superose 6)
Consider B1, for which the “stoichiometry N” value in assay [2] was determined as 2 SpaO^S per SpaO^L.

As usually defined, the stoichiometry N is the number of molecules, sites or subunits per partner or assembly.
